Measured values as given in the RNAGym collection of RNA variant scans (doi:10.1073/pnas.2313332121).
Variants at the floor of the assay were thinned out.

B1: TPR 5TU (parent)
chain: GGAUCUUCUCGAUCUAACAAAAAAGACAAAUCUGCCACAAAGCUUGAGAGCAUCUUCGGAUGCAGAGGCGGCAGCCUUCGGUGGCGCGAUAGCGCCAACGUUCUCAACUAUGACACGCAAAACGCGUGCUCCGUUGAAUGGAGUUUAUCAUG

Variants of: B1
Experiment: polymerase ribozyme fitness, log enrichment relative to wild type (log ratio); higher = more active; in vitro selection for triplet polymerase activity
In short: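 Mutant libraries of both subunits of a heterodimeric triplet polymerase ribozyme were PCR-built, transcribed, and selected once in triplicate, with frozen incubation at −7 °C and capture of gel-excised extended constructs on streptavidin beads before RT-PCR. Illumina sequencing of input and output libraries was filtered to genotypes with ≥10 input reads and ≥1 read per output. Fitness is the logarithm of genotype enrichment over wild-type enrichment, using inverse-variance-weighted replicate averages. The logarithm is base 2.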

Going from GGAUCUUCUCGAUCUAACAAAAAAGACAAACCUGCCACAAAGCUUGAGAGCAUCUUGGGAUGCAGAGGCGGCAGCCUUCGGUGGCGUGAUAGCGCCAACGUACUCAACUAUGACACGCAAAACGCGUGCUCCGUUAAAUGGAGUUUAUCAUG to GGAUCUUCUCGAUCUAACAAAAAAGACAAACCUGCAACAAAGCUUGAGAGCAUCUUCGGAUGCAGAGGCGGCAGCCUUCGGUGGCGCGAUAGCGCUAACGUUCUCAACUAUGACACGCAAAACGCGUGCUCCGUUGAAUGGAGUUUAUCGUG, the “polymerase ribozyme fitness (log ratio)” value falls from -0.199 to ≤ -4.2.

Going from GGAUCUUCUCGAUCUAACAAAAAAGACAAACCUGCCACAAAGCUUGAGAGCAUCUUCGGAUGGAGAGGCGGCAGCCUUCGGUAGCGCGAUAGCGCUAACGUUCUCAACUAUGACACGCAAAACGCGUGCUCCGUUGAAUGGAGUUUAUCAUG to GGAUCUUCUCGAUCUAACAAAAAAGACAAACCUGCCACAAAGCUUGAGAGCAUCUUCGGAUGCAGAGGCGGCAGCCUUCGGUGGCGCGAUAGCGCCAAGGUUUUCAACUAUGACACGCAAAACGCGUGCUCCGUUGAAUGGAGUUUAUCAUG, the “polymerase ribozyme fitness (log ratio)” value falls from 1.61 to -0.958.

GGAUCUUCUCGAUCUAACAAAAAAGACAAACCUGCCACAAAGCUUGAGAGCAUAUUCGGAUGCAGAGGCGGCAGCCUUCGGUGGCGCGAUAGGGCCAACGUUCUCAACUAUGACACGCAAAACGCGUGCUCCGUUGAAUGGAGUUUAUCAUG and GGAUCUUCUCGAUCUAACAAAAAAGACAAACCUGCCACAAAGCUUGAGAGCAUCUUCGGAUGCAGAGGCGGCAGCCUUCGGUGGCGAGAUAGCGCCAACGUUCUCAACUAUGACACGCAAAACGCGUGCUCCGUUGAAUGGAGUUUAUCAUG cannot be ordered by “polymerase ribozyme fitness (log ratio)” value: ≤ -4.2 for the first, -4.2 for the second.

GGAUCUUCUCGAUCUAACAAAAAAGACAAACCUGUCACAAAGCUUGAGAGCAUCUUCGGAUGCAGAGCCGGCAGCCUUCGGUGGCGCGAUAUCGCCAACGUUCACAACUAUGACUCGCCAAACGCGUGCUCCGUUGAAUGGAAUUUAUCAUG and GGAUCUUCUCGAUCUAACAAAAAAGACAAACCUGCCACAAAGCUUGAGAGCAUCUUCGGAUGCAGAGGCGGCAGCCUUCGGUGGCGCGAUAGCGCGAACGUUCUCAACUAUGACACGCAAAACGCGUGCUCCGUUGUAUGGAGUUUAUCAUG cannot be ordered by “polymerase ribozyme fitness (log ratio)” value: ≤ -4.2 for the first, ≤ -4.2 for the second.

GGAUCUUCUCGAUCUAACAAAAAAGACAAACCUGCCACAAAGCUUGAGAGCAUCUUCGGAUGCAGAGGCGGCAGCUUUCGGUGGCGCGAUAGGGCCAACGUCCUCAACUAUGACACGCAAAACGCGUGCUCCGUUGAAUGGAGUGUAUCAUG and GGAUCUUCUCGAUCUAACAAAAAAGACAAACCUGGUACAAAGCUUGAGAGGAUCUUCGGAUGCAGAGGCGGCAGCCUUCGGUGGCGCGAUACCGCCAACGUUCUCAACAAUGACACGCAAAACGCGUGCUCCGUUGAAUGGAGUUUAUCAAG cannot be ordered by “polymerase ribozyme fitness (log ratio)” value: ≤ -4.2 for the first, ≤ -4.2 for the second.

GGAUCUUCUCGAUCUAACAAAAAAGACAAACCUUCCACAAAGCUUGAGAGCUUCUACGGGUGCAGAGGCGGCAGCCUUCGGUGACGCGAUAACGGCAACGUUCUAAACUCUGACACGCAAAACGCGUGCUCCCUUGAAUGGAGUUUAACAUG and GGAUCUUCUCGAUCUAACAAAAAAGACAAACCUGCCAGAAAGCUUGGGAGAAUCUACGGAUGCAGAGGCGGCAGCCUUCGGUCGCGCGAUAGCGCCAACGUUCUCAACUAUGACACGCAAAACGCGUGCUCCGUUGAAUGGAGUUCACCAUG cannot be ordered by “polymerase ribozyme fitness (log ratio)” value: ≤ -4.2 for the first, ≤ -4.2 for the second.

GGAUCUUCUCGAUCUAACAAAAAAGACAAACCUGCCACAAAGAUUGAGAGCAUCUUCGGAUGCAGCGGCGGCAGCCUUUGGUGGAGCGAUAGCGCCAACGUUCUCAACUAUGACACGCACAACGCGUGCUCCGUUGAAUUGAGUUUAUCAUG and GGAUCUUCUCGAUCUAACAAAAAAGACAAACCUGCCACAAAGCUUGAGAGCAUCUUCGGAUGCAGAGGCGGCAGCCUUGGGUGGCGCGAUAGCGCCAACGUUCUCAACUAUGACACGCAAAACGCGUGCUCCGUUGAACGGAGGUUAUCAUG cannot be ordered by “polymerase ribozyme fitness (log ratio)” value: ≤ -4.2 for the first, ≤ -4.2 for the second.

First: GGAUCUUCUCGAUCUAACAAAAAAGACAAACCUGCCACAAAGCUUGAGAGCAUCUUCGGAUGCAGAGGCGGCAGCCUUCGGUGGUGCGAUAGCGCCAACGUUCUCAACUAUGACACGCAAAACGCGUGCUCCGUUGAAUGGAGUUUAUCAUG
Second: GGAUCUUCUCGAUCUAACAAAAAAGACAAACCUGCCACAAAGCUUGAGAGCAUCUUCGGAUGCAGAGGUGGCAGCCUUCGGUGGCUCGAUAGCGCUAACGUUCUCAACUAUGACACGCAAAACGCGUGCUCCGUUGAAUGGAGUUUAUCAUG
The “polymerase ribozyme fitness (log ratio)” value of the first is higher: 0.604 for the first, -3.55 for the second.

Compared with GGAUCUUCUCGAUCUAACAAAAAAGACAAACCUGCCACAAAGCUUGAGAGCAUCUUCGGAUGCAGAGGCGGCAGCCUUCGGUGGCGCGAUAGCGGCAACGUUCUCAACUAUGACACGCAAAACGCGUGCUCCGUUGAAUGGAGUUUAUCAUG, GGAUCUUCUCGAUCUAACAAAAAAGACAAACCUGCCACAAAGCUUGAGAGCAUUUUCGGAUGCAGAGGCGUCAGCCUUCGGUGGCGCGAUAGCGCUAACGUUCUCAACUAUGACACGCAAAACGCGUGCUCCGUUGAAUGGAGUUUAUCAUG is lower in “polymerase ribozyme fitness (log ratio)” value: -0.224 for the first, -3.79 for the second.

For GGAUCUUCUCGAUCUAACAAAAAAGACAAACCUGCCACAAAGCUUGAGAGCAUCUUCGGAUGCAGAGGUGGCAGCCUUCGGUGGCUCGAUAGCGCUAACGUUCUCAACUAUGACACGCAAAACGCGUGCUCCGUUGAAUGGGGUUUAUCAUG, the “polymerase ribozyme fitness (log ratio)” value was -2.99.
